Laboratory results from the supplement of paper PMC10567573.

B1: ZNF263 (parent)
chain: RTHTGEKPYKCTLCGENFSHRSNL
B2: TBX5 (parent)
chain: YQNHKITQLKIENNPFAKGFRGSD

Variants of: B1
Experiment: protein stability index of a GFP-peptide fusion (GPS, HEK-293T) (PSI 1-6); higher = more stable
Conditions: c terminus: a fixed tail appended
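Note: lentivirally expressed fusions sorted by FACS into six bins by GFP to DsRed ratio, PSI derived from sequencing read proportions per bin multiplied by bin number.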

Variant	protein stability index
RTHTGEKPYKCTLCGENFSHRSWL	2.55
RTHTGEKPYKCTLCGENFSHRSPL	2.6
RTHTGEKPYKCTLCGENFSHRSSL	2.05
RTHTGEKPYKCTLCGENFSHRSRL	2.17
RTHTGEKPYKCTLCGENFSHRSYL	1.96
RTHTGEKPYKCTLCGENFSHRSTL	1.94
RTHTGEKPYKCTLCGENFSHRSQL	1.91
RTHTGEKPYKCTLCGENFSHRSVL	1.94
RTHTGEKPYKCTLCGENFSHRSNI	2.15
RTHTGEKPYKCTLCGENFSHRSNN	2.37
RTHTGEKPYKCTLCGENFSHRSNM	1.91
RTHTGEKPYKCTLCGENFSHRSNG	2.82
RTHTGEKPYKCTLCGENFSHRSNY	1.78
RTHTGEKPYKCTLCGENFSHRSNE	2.43
RTHTGEKPYKCTLCGENFSHRSNQ	2.33
RTHTGEKPYKCTLCGENFSHRSNV	2.49
RTHTGEKPYKCTLCGENFSHRSNR	1.95
RTHTGEKPYKCTLCGENFSHRSND	2.39
RTHTGEKPYKCTLCGENFSHRSNP	2.33
RTHTGEKPYKCTLCGENFSHRSNF	1.59
RTHTGEKPYKCTLCGENFSHRSNC	4
RTHTGEKPYKCTLCGENFSHRSNT	2.4
RTHTGEKPYKCTLCGENFSHRSNK	2.63
RTHTGEKPYKCTLCGENFSHRSNH	2.42
RTHTGEKPYKCTLCGENFSHRSNS	2.52
RTHTGEKPYKCTLCGENFSHRSNW	1.82
RTHTGEKPYKCTLCGENFSHRSNA	2.3

Variants of: B2
Experiment: as above
Conditions: c terminus: a fixed tail appended

Variant	protein stability index
YQNHKITQLKIENNPYAKGFRGSD	2.46
YQNHKITQLKIENNPLAKGFRGSD	2.51
YQNHKITQLKIENNPMAKGFRGSD	2.98
YQNHKITQLKIEPNPFAKGFRGSD	2.25
YQNHKITQLKIERNPFAKGFRGSD	2.46
YQNHKITQLKIECNPFAKGFRGSD	2.31
YQNHKITQLKIEANPFAKGFRGSD	2.17
YQNHKITQLKIEHNPFAKGFRGSD	2.15
YQNHKITQLKIEGNPFAKGFRGSD	1.81
YQNHKITQLKIEKNPFAKGFRGSD	2.34
YQNHKITQLKIENNPFAKGFRISD	2.48
YQNHKITQLKIENNPFAKGFRRSD	2.12
YQNHKITQLKIENNPFAKGFRTSD	2.67
YQNHKITQLKIENNPFAKGFRESD	2.33
YQNHKITQLKIENNPFAKGFRKSD	2.49
YQNHKITQLKIENNPFAKGFRPSD	3.32
YQNHKITQLKIENNPFAKGFRNSD	2.4
YQNHKITQLKIENNPFAKGFRSSD	2.57
YQNHKITQLKINNNPFAKGFRGSD	2.51
YQNHKITQLKIHNNPFAKGFRGSD	2.3
YQNHKITQLKIINNPFAKGFRGSD	1.81
YQNHKITQLKICNNPFAKGFRGSD	1.73
YQNHKITQLKIKNNPFAKGFRGSD	1.84

Variant	protein stability index
YQNHKITQLKIMNNPFAKGFRGSD	2.35
YQNHKITQLKISNNPFAKGFRGSD	2.11
YQNHKITQLKIPNNPFAKGFRGSD	2.63
YQNHKITQLKIENNPFAKGFRGED	2.42
YQNHKITQLKIENNPFAKGFRGLD	2.11
YQNHKITQLKIENNPFAKGFRGRD	2.63
YQNHKITQLKIENNPFAKGFRGGD	2.59
YQNHKITQLKIENNPFAKGFRGAD	2.25
YQNHKITQLKIENNPFAKGFRGPD	2.55
YQNHKITQLKIENNPFAKGFRGHD	2.47
YQNHKITQLKIENNPFAKGFRGCD	2.49
YQNHKITQLKIENNPFHKGFRGSD	2.54
YQNHKITQLKIENNPFQKGFRGSD	2.54
YQNHKITQLKIENNPFTKGFRGSD	2.43
YQNHKITQLKIENNPFAPGFRGSD	2.54
YQNHKITQLKIENNPFAMGFRGSD	2.06
YQNHKITQLKIENNPFAYGFRGSD	2.12
YQNHKITQLKIENNPFAGGFRGSD	1.81
YQNHKITQLKIENNPFAVGFRGSD	2.07
YQNHKITQLKIENNPFAWGFRGSD	1.63
YQNHKITQLKIENNPFAQGFRGSD	2.37
YQNHKITQIKIENNPFAKGFRGSD	2.73
YQNHKITQSKIENNPFAKGFRGSD	3.07

Variant	protein stability index
YQNHKITQCKIENNPFAKGFRGSD	2.02
YQNHKITQRKIENNPFAKGFRGSD	3.54
YQNHKITQYKIENNPFAKGFRGSD	2.31
YQNHKITQPKIENNPFAKGFRGSD	2.84
YQNHKITQFKIENNPFAKGFRGSD	2.26
YQNHKITQNKIENNPFAKGFRGSD	3.01
YQNHKITQLKIENNPFAKGFIGSD	2.19
YQNHKITQLKIENNPFAKGFLGSD	2.15
YQNHKITQLKIENNPFAKGFVGSD	2.51
YQNHKITQLKIENNPFAKGFMGSD	2.55
YQNHKITQLKIENNPFAKGFPGSD	2.74
YQNHKITQLKIENNPFAKGFCGSD	2.34
YQNHKITQLKIENNPFAKGFGGSD	2.46
YQNHKITQLKIENNPFAKGFFGSD	2.89
YQNHKITQLKIENNPFAKGFEGSD	2.58
VQNHKITQLKIENNPFAKGFRGSD	3.22
FQNHKITQLKIENNPFAKGFRGSD	2.48
TQNHKITQLKIENNPFAKGFRGSD	3.65
GQNHKITQLKIENNPFAKGFRGSD	3.64
LQNHKITQLKIENNPFAKGFRGSD	3.42
YQNHKCTQLKIENNPFAKGFRGSD	2.36
YQNHKVTQLKIENNPFAKGFRGSD	2.4
YQNHKATQLKIENNPFAKGFRGSD	3.47

Variant	protein stability index
YQNHKTTQLKIENNPFAKGFRGSD	3.06
YQNHKQTQLKIENNPFAKGFRGSD	2.98
YQNHKRTQLKIENNPFAKGFRGSD	2.79
YQNHKITQLKIENNPFAKWFRGSD	1.88
YQNHKITQLKIENNPFAKHFRGSD	2.55
YQNHKITQLKKENNPFAKGFRGSD	2.52
YQNHKITQLKHENNPFAKGFRGSD	2.33
YQNHKITQLKRENNPFAKGFRGSD	2.71
YQNHKITQLKTENNPFAKGFRGSD	2.71
YQNHKITQLKAENNPFAKGFRGSD	2.36
YQNHKITQLKLENNPFAKGFRGSD	2.62
YQNHKITQLKNENNPFAKGFRGSD	2.59
YQNHKITQLKMENNPFAKGFRGSD	2.64
YQNHKITQLKGENNPFAKGFRGSD	2.47
YQNHKITQLEIENNPFAKGFRGSD	3.11
YQNHKITQLWIENNPFAKGFRGSD	1.95
YQNHKITQLIIENNPFAKGFRGSD	1.63
YQNHKITQLDIENNPFAKGFRGSD	2.68
YQNHKITQLNIENNPFAKGFRGSD	2.46
YQNHKITQLSIENNPFAKGFRGSD	2.79
YQNHKITQLTIENNPFAKGFRGSD	2.74
YQNHKITQLMIENNPFAKGFRGSD	2.23
YQNHKITQLCIENNPFAKGFRGSD	2.11

Variant	protein stability index
YQNQKITQLKIENNPFAKGFRGSD	2.66
YQNVKITQLKIENNPFAKGFRGSD	2.68
YQNRKITQLKIENNPFAKGFRGSD	2.77
YQNKKITQLKIENNPFAKGFRGSD	2.4
YQNHKITQLKIENNRFAKGFRGSD	2.35
YQNHKITQLKIENNIFAKGFRGSD	2.04
YQNHKITQLKIENNFFAKGFRGSD	1.96
YQNHKITQLKIENNNFAKGFRGSD	2.7
YQNHKITQLKIENNKFAKGFRGSD	2.33
YQNHKITQLKIENNTFAKGFRGSD	2.82
YQNHKITQLKIENNMFAKGFRGSD	2.65
YQAHKITQLKIENNPFAKGFRGSD	1.94
YQSHKITQLKIENNPFAKGFRGSD	2.3
YQVHKITQLKIENNPFAKGFRGSD	2.39
YQMHKITQLKIENNPFAKGFRGSD	2.16
YQIHKITQLKIENNPFAKGFRGSD	1.97
YQHHKITQLKIENNPFAKGFRGSD	2.29
YQDHKITQLKIENNPFAKGFRGSD	2.71
YMNHKITQLKIENNPFAKGFRGSD	2.61
YVNHKITQLKIENNPFAKGFRGSD	2.39
YTNHKITQLKIENNPFAKGFRGSD	2.4
YSNHKITQLKIENNPFAKGFRGSD	3.26
YLNHKITQLKIENNPFAKGFRGSD	2.84

Variant	protein stability index
YENHKITQLKIENNPFAKGFRGSD	3.14
YNNHKITQLKIENNPFAKGFRGSD	3.48
YINHKITQLKIENNPFAKGFRGSD	2.19
YQNHKITQLKIENCPFAKGFRGSD	1.58
YQNHKITQLKIENTPFAKGFRGSD	2.61
YQNHKITQLKIENRPFAKGFRGSD	2.58
YQNHKITQLKIENVPFAKGFRGSD	2.27
YQNHKITQLKIENMPFAKGFRGSD	2.05
YQNHKITQLKIENWPFAKGFRGSD	1.59
YQNHKITQLKIENNPFAKGLRGSD	2.79
YQNHKITQLKIENNPFAKGARGSD	3.41
YQNHKITQLKIENNPFAKGHRGSD	3.27
YQNHKITQLKIENNPFAKGVRGSD	2.63
YQNHKITQLKIENNPFAKGKRGSD	3.11
YQNHKITQLKIENNPFAKGTRGSD	3.04
YQNHKITQLKIENNPFAKGGRGSD	2.98
YQNHKITQLKIENNPFAKGPRGSD	2.88
YQNHKITQLKIENNPFAKGSRGSD	3.23
YQNHKITQLKIENNPFAKGQRGSD	3.19
YQNHKITGLKIENNPFAKGFRGSD	2.73
YQNHKITFLKIENNPFAKGFRGSD	1.7
YQNHKITMLKIENNPFAKGFRGSD	2.2
YQNHKITALKIENNPFAKGFRGSD	2.79

Variant	protein stability index
YQNHKITHLKIENNPFAKGFRGSD	2.41
YQNHKITQLKIENNPFAKGFRGSG	2.39
YQNHKITQLKIENNPFAKGFRGSF	1.95
YQNHKITQLKIENNPFAKGFRGSR	2.69
YQNHKITQLKIENNPFAKGFRGSK	2.53
YQNHKIMQLKIENNPFAKGFRGSD	2.21
YQNHKIEQLKIENNPFAKGFRGSD	3.32
YQNHKIYQLKIENNPFAKGFRGSD	2.37
YQNHKIAQLKIENNPFAKGFRGSD	2.15
YQNHKIDQLKIENNPFAKGFRGSD	2.69
YQNHKISQLKIENNPFAKGFRGSD	2.46
YQNHKIVQLKIENNPFAKGFRGSD	2.29
YQNHGITQLKIENNPFAKGFRGSD	2.57
YQNHQITQLKIENNPFAKGFRGSD	2.81
YQNHSITQLKIENNPFAKGFRGSD	2.21
YQNHEITQLKIENNPFAKGFRGSD	2.98
YQNHIITQLKIENNPFAKGFRGSD	1.51
YQNHCITQLKIENNPFAKGFRGSD	2.15
YQNHAITQLKIENNPFAKGFRGSD	2.7
YQNHLITQLKIENNPFAKGFRGSD	2.18
YQNHPITQLKIENNPFAKGFRGSD	2.77
YQNHWITQLKIENNPFAKGFRGSD	2.64
YQNHHITQLKIENNPFAKGFRGSD	2.03
